In US20220000998A1:

B1: 14GIIICII-b scFv (scFv)
scFv: QVQLQQPGAELVMPGASVNLSCKASGYTFTDYWMHWVKQRPGQGLEWIGEIDPSDNFSNLNQNFRGKATLTVDKSSRTAFLQLSSLTSEDSAVYYCAVEDYWGQGTTLTVSSGGGGSGGGGSGGGGSGGGGSDIVMTQATPSVLVTPGEAVSISCRASRSLLHSNGITYLYWFLQRPGQSPQVLIYRMSNLVSGVPDRFSGSGSGTAFTLRISRVEAEDVGVYYCMQHLEFPYTFGGGTKLEIK
B2: IBIIICI-b scFv (scFv)
scFv: EVRLLQSGAALVRPGASVKLSCTASGFNIKDFNIHWVKQRPEQGLEWIGRIDPENGDAEYVPKFQVRATMTTDTSSNTVYLHLSSLTSGDTAVYYCTTGSYDLDVEYWGQGTTLTVSSGGGGSGGGGSGGGGSGGGGSELQMTQSPSSLSASLGDTVTITCHASQNINVWLSWYQQRPGNIPKLLIYKASTLHTGVPSRFRGSGSGTGFTLTISSLQPEDIATYYCQQGQSYPLTFGAGTKLELK
B3: scFv Y-SM083-p04-D04 (scFv)
scFv: EVQLLESGGGLVQPGGSLRLSCAASGFTFSGYYMYWVRQAPGKGLEWVSYIGYSGGGTGYADSVKGRFTISRDNSKNTLYLQMNSLRAEDTAVYYCARVPFGAFDYWGQGTLVTVSSGGGGSGGGGSGGGGSDIQMTQSPSSLSASVGDRVTITCRASQSISSYLNWYQQKPGKAPKLLIYAASSLQSGVPSRFSGSGSGTDFTLTISSLQPEDFATYYCQQYYGFPYTFGQGTKLEIK

How the values were obtained:
[1] = molecular target: MTTE peptide (minimal tetanus toxin epitope), biotinylated (Clostridium tetani)
[2] = molecular target: SM083P004 (Clostridium tetani)

| Binder | Kd [1] | koff [1] | kon [1] | Kd [2] | koff [2] | kon [2] |
| --- | --- | --- | --- | --- | --- | --- |
| B1 | 1.8 nM | 0.00032 s⁻¹ | 180000 M⁻¹ s⁻¹ | – | – | – |
| B2 | 0.52 nM | 0.00048 s⁻¹ | 920000 M⁻¹ s⁻¹ | – | – | – |
| B3 | – | – | – | 3.3 nM | 0.00043 s⁻¹ | 130000 M⁻¹ s⁻¹ |
